Measurements taken from paper PMC10557571 (bioRxiv, 2023).

Molecular target: the molecule itself
Experiment: SDS-PAGE under non-reducing and reducing conditions with anti-Flag western blot

Protein | stoichiometry N
Flag-tagged mature Activin E from Construct II (ligand, human, UniProt P58166 237-350, looked up) TPTCEPATPLCCRRDHYVDFQELGWRDWILQPEGYQLNYCSGQCPPHLAGSPGIAASFHSAVFSLLKANNPWPASTSCCVPTARRPLSLLYLDHNGNVVKTDVPDMVVEACGCS | 2
Unprocessed Activin E precursor from Construct I (natural protein, human, UniProt P58166 20-350, looked up) QGTGSVCPSCGGSKLAPQAERALVLELAKQQILDGLHLTSRPRITHPPPQAALTRALRRLQPGSVAPGNGEEVISFATVTDSTSAYSSLLTFHLSTPRSHHLYHARLWLHVLPTLPGTLCLRIFRWGPRRRRQGSRTLLAEHHITNLGWHTLTLPSSGLRGEKSGVLKLQLDCRPLEGNSTVTGQPRRLLDTAGHQQPFLELKIRANEPGAGRRRRRTPTCEPATPLCCRRDHYVDFQELGWRDWILQPEGYQLNYCSGQCPPHLAGSPGIAASFHSAVFSLLKANNPWPASTSCCVPTARRPLSLLYLDHNGNVVKTDVPDMVVEACGCS | 2
